38 sequences from the supplement of paper PMC7877785 can be followed below.

± gives the uncertainty stated by the source.

The nature of the data set: self-splicing fitness, log relative to wild type (ln ratio); higher = more splicing; Tetrahymena group I intron in knt gene, E. coli kanamycin selection, DiMSum; sequences stand for … in CUCUCU…GGAGGGAAAAGUUAUCAGGCAUGCACCUGGUAGCUAGUCUUUAAACCAAUAGAUUGCAUCGGUUUAAAAGGCAAGACCGUCAAAUUGCGGGAAAGGGGUCAACAGCCGUUCAGUACCAAGUCUCAGGGGAAACUUUGAGAUGGCCUUGCAAAGGGUAUGGUAAUAAGCUGACGGACAUGGUCCUAACCACGCAGCCAAGUCCUAAGUCAACAGAUCUUCUGUUGAUAUGGAUGCAGUUCACAGACUAAAUGUCGGUCGGGGAAGAUGUAUUCUUCUCAUAAGAUAUAGUCGGACCUCUCCUUAAUGGGAGCUAGCGGAUGAAGUGAUGCAACACUGGAGCCGCUGGGAACUAAUUUGUAUGCGAAAGUAUAUUGAUUAGUUUUGGAGUACUCGUGGUCG
In a few lines: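 Library with all eight P1ex-region intron nucleotides randomised, intron inside the knt kanamycin-resistance gene on pET-22b(+), in E. coli BL21(DE3). Cells grew overnight at 37°C or 30°C on LB agar with or without 25 μg/mL kanamycin (plus 100 μg/mL carbenicillin, 50 μM IPTG, 0.2% rhamnose), in six replicate transformations. Pooled colonies were amplicon-sequenced on Illumina HiSeq 2500. DiMSum fitness is the error-weighted combination of wild-type-normalised replicate fold changes, kanamycin versus none.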

Take AGCGAGCAAUAUUACGAUAA: the “self-splicing fitness (ln)” value (37 °C) was -2.17 ± 0.24.
For AGCGAGCAAUAUUACGAUAC, the “self-splicing fitness (ln)” value is -3.47 ± 0.47 (30 °C) and -2.29 ± 0.39 (37 °C).
The matching figures for AGCGAGCAAUAUUACGAUAG: -3.64 ± 0.43 and -1.76 ± 0.35.
The matching figures for AGCGAGCAAUAUUACGAUAU: -4.12 ± 0.29 and -1.99 ± 0.19.
As for AGCGAGCAAUAUUACGAUUC, the “self-splicing fitness (ln)” value is -1.93 ± 0.16 (30 °C) and -2.02 ± 0.27 (37 °C).
Consider AGCGAGCAAUAUUACGAUUG, for which the “self-splicing fitness (ln)” value was -4.39 ± 0.42 (30 °C) and -1.52 ± 0.34 (37 °C).
Consider AGCGAGCAAUAUUACGCAUC, for which the “self-splicing fitness (ln)” value (30 °C) was -2.51 ± 0.36 and the “self-splicing fitness (ln)” value (37 °C) was -2.33 ± 0.33.
In the case of AGCGAGCAAUAUUACGCCUU, the “self-splicing fitness (ln)” value (30 °C) was -1.94 ± 0.25 and the “self-splicing fitness (ln)” value (37 °C) was -2.62 ± 0.48.
The matching figures for AGCGAGCAAUAUUACGCGUA: -2.95 ± 0.34 and -1.7 ± 0.18.
The matching figures for AGCGAGCAAUAUUACGGCAU: -1.45 ± 0.12 and -0.286 ± 0.14.
Turning to AGCGAGCAAUAUUACGUAAA, the “self-splicing fitness (ln)” value was -2.53 ± 0.18 (30 °C) and -2.03 ± 0.31 (37 °C).
For AGCGAGCAAUAUUACGUACU the same measures were -0.777 ± 0.088 and -0.674 ± 0.092.
Turning to AGCGAGCAAUAUUACGUUCC, the “self-splicing fitness (ln)” value (37 °C) is -1.3 ± 0.24.
For AGCUAGCAAUAUUACGAACU, the “self-splicing fitness (ln)” value (30 °C) is -0.899 ± 0.12 and the “self-splicing fitness (ln)” value (37 °C) is 0.179 ± 0.16.
The matching figures for AGCUAGCAAUAUUACGACAC: -2.07 ± 0.15 and -1.11 ± 0.16.
As to AGCUAGCAAUAUUACGAGCU, the “self-splicing fitness (ln)” value (30 °C) was -2.65 ± 0.19 and the “self-splicing fitness (ln)” value (37 °C) is -1.92 ± 0.21.
For AGCUAGCAAUAUUACGAGUG the same measures were -0.877 ± 0.066 and -0.529 ± 0.084.
On to AGCUAGCAAUAUUACGAUAA, for which the “self-splicing fitness (ln)” value was -2.14 ± 0.12 (30 °C) and -1.12 ± 0.14 (37 °C).
In the case of AGCUAGCAAUAUUACGCCUA, the “self-splicing fitness (ln)” value was -0.93 ± 0.14 (30 °C) and -0.324 ± 0.13 (37 °C).
With AGCUAGCAAUAUUACGCCUG, the “self-splicing fitness (ln)” value runs as follows: (30 °C) -1.6 ± 0.13; (37 °C) -1.55 ± 0.17.
For the sequence AGCUAGCAAUAUUACGCUAU, the “self-splicing fitness (ln)” value runs as follows: (30 °C) -2.89 ± 0.21; (37 °C) -1.42 ± 0.18.
The matching figures for AGCUAGCAAUAUUACGCUGG: -3.58 ± 0.2 and -2.31 ± 0.3.
Regarding AGCUAGCAAUAUUACGCUUG, the “self-splicing fitness (ln)” value is -3.96 ± 0.26 (30 °C) and -2.9 ± 0.25 (37 °C).
Regarding AGCUAGCAAUAUUACGGAAU, the “self-splicing fitness (ln)” value reads like this: (30 °C) -1.13 ± 0.16; (37 °C) -2.07 ± 0.27.
For AGCUAGCAAUAUUACGGAGA, the “self-splicing fitness (ln)” value reads like this: (30 °C) -2.24 ± 0.22; (37 °C) -3.14 ± 0.37.
For AGCUAGCAAUAUUACGGAUC the same measures were -1.26 ± 0.12 and -1.54 ± 0.16.
Take AGCUAGCAAUAUUACGGCAU: the “self-splicing fitness (ln)” value (30 °C) is -0.602 ± 0.11 and the “self-splicing fitness (ln)” value (37 °C) was -0.476 ± 0.14.
For AGCUAGCAAUAUUACGGCCG the same measures were -0.198 ± 0.15 and 0.841 ± 0.19.
For AGCUAGCAAUAUUACGGGCA the same measures were -0.728 ± 0.12 and -0.379 ± 0.14.
For AGCUAGCAAUAUUACGGGGA the same measures were -2.22 ± 0.17 and -1.68 ± 0.14.
AGCUAGCAAUAUUACGGUAA: the “self-splicing fitness (ln)” value reads like this: (30 °C) -2.34 ± 0.26; (37 °C) -1.53 ± 0.26.
For AGCUAGCAAUAUUACGGUCA the same measures were -0.312 ± 0.067 and 0.192 ± 0.083.
For AGCUAGCAAUAUUACGGUCG the same measures were -0.942 ± 0.072 and 0.371 ± 0.1.
Consider AGCUAGCAAUAUUACGUAAU, for which the “self-splicing fitness (ln)” value was -3.29 ± 0.16 (30 °C) and -0.924 ± 0.11 (37 °C).
The matching figures for AGCUAGCAAUAUUACGUCAG: -3.09 ± 0.18 and -2.84 ± 0.22.
Take AGCUAGCAAUAUUACGUGAA: the “self-splicing fitness (ln)” value is, setting by setting: (30 °C) -1.58 ± 0.13; (37 °C) -1.05 ± 0.15.
With AGGAAGCAAUAUUACGAAAG, the “self-splicing fitness (ln)” value reads like this: (30 °C) -2.44 ± 0.23; (37 °C) -1.19 ± 0.35.
In the case of AGGAAGCAAUAUUACGACUG, the “self-splicing fitness (ln)” value was -0.619 ± 0.094 (30 °C) and 0.0357 ± 0.1 (37 °C).
